Test results from patent US5792742.
Where no end group is shown, it is not given here. [ ]: non-standard residue; d: D form. pGlu = O=C1CC[C@@H](C(=O)O)N1

Key:
[1] = target: fibrin (fibrinogen dried on microtiter wells and converted with thrombin); experiment: competitive ELISA on fibrin-coated wells, competitor biotinylated Fn (2.3 nM)
[2] = target: fibrin (fibrinogen dried on microtiter wells and converted with thrombin); experiment: competitive ELISA on fibrin-coated plates, competitor Fn (2.3 nM), 5,000 molar excess
[3] = target: fibrin (fibrinogen dried on microtiter wells and converted with thrombin); experiment: competitive ELISA against intact Fn on fibrin
[4] = target: fibrin (fibrinogen dried on microtiter wells and converted with thrombin); experiment: competitive ELISA on fibrin-coated plates, competitor Fn
[5] = target: fibrin (fibrinogen dried on microtiter wells and converted with thrombin); experiment: competitive ELISA on fibrin-coated plates, competitor Fn (2.3 nM)

B1: recombinant ^1 F1.^2 F1 module pair of fibronectin (peptide)
chain: QAQQMVQPQSPVAVSQSKPGCYDNGKHYQINQQWERTYLGNALVCTCYGGSRGFNCESKPEAEETCFDKYTGNTYRVGDTYERPKDSMIWDCTCIGAGRGRISCTI
modifications: N-terminal pyroglutamate; the major species lacks the NH2-terminal Gln-Ala dipeptide and its new N-terminal Gln is also pyroglutamate
[1]
  % inhibition of biotinylated Fn binding: 15%
[2]
  % inhibition of Fn binding: < 20%

## CRDEKTQMIYQQHQSWLRPVLRSNRVEYCWCNSGRAQCH (not fully specified (bridges); cysteine pairing not given here) [t-PA type 1 module]
[3]
  % inhibition (so in the source): 45%
[4]
  % inhibition of fibronectin binding: 55%

B2: recombinant ^1 F1 module of fibronectin (peptide)
chain: [pGlu]AQQMVQPQSPVAVSQSKPGCYDNGKHYQINQQWERTYLGNALVCTCYGGSRGFNCESKPE
modifications: not fully specified (bridges); also: major species lacks N-terminal Gln-Ala, its new N-terminal Gln also pyroglutamate
[5]
  % inhibition of Fn binding: < 20%
